Results published in patent US20210162028A1, “Methods for Inducing Intermittent Fasting and Modulating Autophagy” (The Hong Kong Polytechnic University, priority 2019, published 2021).
Entries after “also recorded” stand apart in the source; their conditions may differ.

How the values were obtained:
[1] = Bodyweight of treated mice; assay type: in vivo, mouse
[2] = Fat pad and organ mass at end of treatment; assay type: in vivo, mouse; details: DIO C57BL/6J male mice on HFD, about 600 U once a week, 34 weeks
Excerpt: Other than WAT and BAT, obesity is associated with excessive accumulation of lipids in the liver (hepatic steatosis). Indeed, the liver of vehicle-treated DIO mice was markedly enlarged (FIG. 7A), with a mass about 3 times (4.68 g) that of the lean control (1.73 g) (FIG. 7B).
(§1) Other than liver, obesity is also commonly associated with lipid accumulation in the kidney (renal steatosis) and heart (cardiac steatosis), causing lipotoxicity and dysfunction of these organs. Indeed, there was an increase in kidney and heart mass in DIO mice treated with vehicle (FIG. 8A and FIG. 9A).

[3] = Blood pressure and heart rate by tail-cuff method; assay type: in vivo, mouse; details: DIO C57BL/6J male mice on HFD; about 600 U once a week; measured at 12 and 27 weeks
Excerpt: FIG. 9 illustrates that administration of N-ABD094-rhArg (SEQ ID NO: 50) to DIO male mice fed a HFD [HFD (rhArg) group] in FIG. 1 for 34 weeks could reduce heart mass, and lower blood pressure and heart rate to levels similar to that of the lean control mice [CD (vehicle) group]. (A) Heart mass. (B-E) Systolic and diastolic blood pressure (B, D) and heart rate (C, E) measured respectively at 12 weeks (B, C) and 27 weeks (D, E) after rhArg treatment by tail-cuff method using Noninvasive Blood Pressure Monitoring System (CODA Scientific). *P<0.05, one-way ANOVA followed by Bonferroni test. Data are expressed as mean±SEM.
as §1

[4] = Glucose tolerance test (GTT); assay type: in vivo, mouse
[5] = Rotarod test; assay type: in vivo, mouse
[6] = Hepatic steatosis (oil Red O / H&E staining, liver triglyceride); assay type: in vivo, mouse; details: DIO C57BL/6J male mice on HFD; for Lipid in liver (H&E staining): 11 weeks after treatment
[7] = test system: primary culture of mouse hypothalamic neurons; experiment: Western blot of primary culture of mouse hypothalamic neurons; assay type: cell-based; details: 2 U/mL
Excerpt: The arcuate nucleus in the hypothalamus has received extensive attention as an integrator and regulator of energy homeostasis and appetite. These neurons can rapidly sense metabolic fluctuations in the blood. Others have recently implicated autophagy in central appetite regulation and leptin sensitivity (Park et al., Nature Communications. 2020; 11: 1914). Knockdown of an essential autophagy gene autophagy-related 7 (Atg7), leads to accumulation of p62 in POMC neurons, resulting in an increase in bodyweight and appetite. Besides, it has been shown that amino acid deprivation/imbalance can trigger a reduction in food intake via eIF2α/ATF4 pathway [Maurin et al., Cell Rep. 2014 Feb. 6(3): 438-444]. In our study, mature hypothalamic neurons (after 14 day in vitro culture) were exposed to vehicle or 2 U/mL N-ABD094-rhArg (SEQ ID NO: 50) for 1 hr, 4 hrs, 8 hrs or 24 hrs. After treatment, proteins were harvested from whole cell lysate of neurons and subjected to western blot analysis for examining the short-term effect of arginine depletion on hypothalamic neurons. Autophagy markers (LC3B and p62) were analyzed. […] These findings supported that N-ABD094-rhArg (SEQ ID NO: 50) induced an autophagic flux in hypothalamic neurons.

[8] = Half-life / therapeutic duration in circulation; design: species or system mice; details: mouse, in vivo
Excerpt: As used herein, the term “half-life” or “½-life” refers to the time that would be required for the concentration of an agent, e.g., a fusion protein or arginine depleting agent as described herein, to fall by half in vitro or in vivo, for example, after injection into a mammal. In certain instances, the concentration of plasma arginine, after injection, is used herein as a proxy indicator of the half-life of the agent. In such instances, the term “therapeutic duration” is used to refer to the length of time a specified dosage of the arginine depleting agent is able to maintain the plasma concentration of arginine below a specified threshold concentration that a desired therapeutic effect is observed. In certain embodiments, the threshold concentration of plasma arginine is below 50 μM, below 40 μM, below 30 μM, below 20 μM, below 10 μM, below 5 μM, below 3 μM, or at a concentration below the detection limit of conventional analytical instrumentation.
Importantly, the present invention used a new ABD fusion approach to join an ABD and an arginase together so that arginase activity can be retained. Stable and soluble arginase-ABD fusion molecules that can bind to FcRn in a pH-dependent manner were successfully generated, allowing for efficient endosomal recycling. […] Taken together, a variety of different approaches are available for fine-tuning the pharmacokinetic properties of arginases, ensuring appropriate residence time in circulation for different disease conditions. Another key issue in the development of any therapeutic protein is to minimize immunogenicity to avoid adverse effects. Thus, the observed low immunogenicity of human arginase and the successful deimmunization of ABD (e.g. ABD094), which was also used in the present disclosure as gene fusion partner to extend the in vivo half-life, are important.

B1: N-ABD094-rhArg: recombinant human arginase fused to albumin binding domain ABD094 (SEQ ID NO: 50); engineered long-acting arginine-depleting enzyme (protein)
chain: MHHHHHHDEAVDANSLAEAKEAANAELDSYGVSDFYKRLIDKAKTVEGVEALKDAILAALPSGSNNNNNNGSGGMSAKSRTIGIIGAPFSKGQPRGGVEEGPTVLRKAGLLEKLKEQECDVKDYGDLPFADIPNDSPFQIVKNPRSVGKASEQLAGKVAEVKKNGRISLVLGGDHSLAIGSISGHARVHPDLGVIWVDAHTDINTPLTTTSGNLHGQPVSFLLKELKGKIPDVPGFSWVTPCISAKDIVYIGLRDVDPGEHYILKTLGIKYFSMTEVDRLGIGKVMEETLSYLLGRKKRPIHLSFDVDGLDPSFTPATGTPVVGGLTYREGLYITEEIYKTGLLSGLDIMEVNPSLGKTPEEVTRTVNTAVAITLACFGLAREGNHKPIDYLNPPK
modifications: N-ABD094-rhArg, Synthesized in the Lab
notes: engineered long-acting arginine-depleting enzyme
- Drop of bodyweight ([1]; 16-month old DIO C57BL/6J male mice on HFD, about 68 g prior to treatment, once a week, 25 weeks): 50%
- Bodyweight maintained for the rest of the treatment period ([1]; 16-month old DIO C57BL/6J male mice on HFD, about 600 U once a week, 25 weeks): around 30 g
- Bodyweight reached and maintained under treatment ([1]; 17-month old C57BL/6J male mice on chow diet, about 600 U once a week, 21 weeks, from 40 g): 30 g
- Bodyweight reached and maintained under treatment ([1]; 25-month old C57BL/6J male mice on chow diet, about 600 U once a week, from 45 g within 3 weeks): 30 g
- Change in bodyweight under single treatment ([1]; DIO C57BL/6J male mice on HFD, 300 U rhArg once a week alone or 300 mg/kg metformin daily alone): stable body weight without further increase in body mass
- Change in bodyweight under single treatment ([1]; DIO C57BL/6J male mice on HFD, 300 U rhArg once a week alone or 300 mg/kg metformin daily alone, listed as rhArg): could only prevent further gain in bodyweight, but did not result in weight loss
- Change in bodyweight ([1]; DIO C57BL/6J male mice on HFD, 600 U i.p. once a week, 5 weeks (artificial IF experiment)): substantial weight loss
- Decrease of bodyweight by the end of treatment ([1]; DIO C57BL/6J male mice on HFD, 600 U i.p. once a week, 5 weeks (reduced daily food intake experiment)): 44%
- Reduction of bodyweight ([1]; DIO C57BL/6J male mice on HFD, about 600 U i.p. once a week, within 6-7 weeks): 40%
- Bodyweight reached and maintained under treatment ([1]; DIO C57BL/6J male mice on HFD, about 600 U once a week, 49 weeks, from 50 g within 6-7 weeks): around 30 g
- Bodyweight reached and maintained under treatment ([1]; DIO C57BL/6J male mice on HFD, about 600 U once a week, 49 weeks, from 50 g within 6-7 weeks, listed as rhArg): 30 g
- Change in bodyweight under single treatment ([1]; DIO C57BL/6J male mice on HFD, rhArg once a week alone or 0.33 mg RA daily alone): stable body weight without further increase
- Change in bodyweight under single treatment ([1]; DIO C57BL/6J male mice on HFD, rhArg once a week alone or 0.33 mg RA daily alone, listed as rhArg): could only prevent further gain in bodyweight, but did not result in weight loss
- Decrease of bodyweight ([1]; DIO ICR female mice on HFD, 1200 U i.p. once a week, within 9-10 weeks): 30%
- Bodyweight maintained for the rest of the treatment period ([1]; DIO ICR female mice on HFD, about 1200 U once a week, 56 weeks): around 35 g
- Kidney and heart mass [2]: significantly less than that of the vehicle-treated DIO mice
- Mass of perirenal, inguinal and interscapular fat pad, relative to DIO mice treated with vehicle [2]: less than 20%
- Liver mass ([2]; vehicle DIO 4.68 g, lean control 1.73 g): 1.39 g
- Blood pressure and heart rate [3]: levels similar to the age-matched lean control mice
- Glucose tolerance in GTT ([4]; 16-month old DIO C57BL/6J male mice on HFD, once a week, at 12 weeks): effectively reverse impaired glucose tolerance
- Glucose tolerance in GTT ([4]; 17-month old C57BL/6J male mice on chow diet, once a week, at 15 weeks): to a level better than mice in CD Young (vehicle) group; also recorded: effectively improve glucose tolerance
- Glucose tolerance in GTT ([4]; DIO C57BL/6J male mice on HFD, 300 U/week rhArg and/or 300 mg/kg metformin, after 7 weeks): significant improvement on glucose tolerance
- Glucose tolerance in GTT ([4]; DIO C57BL/6J male mice on HFD, 600 U once a week, after 3 weeks (reduced daily food intake experiment)): improved glucose tolerance
- Glucose tolerance in GTT ([4]; DIO C57BL/6J male mice on HFD, 600 U once a week, at 3 weeks (artificial IF experiment)): significant improvement in glucose tolerance by 3 weeks of treatment
- Glucose tolerance in GTT ([4]; DIO C57BL/6J male mice on HFD, about 600 U once a week, at 15 and 31 weeks): significant improvement in glucose tolerance to a level comparable with the lean control mice; also recorded: effectively reverse impaired glucose tolerance
- Glucose tolerance in GTT ([4]; DIO C57BL/6J male mice on HFD, rhArg weekly and/or 0.33 mg/day RA, after 7 weeks): cannot relieve glucose intolerance
- Glucose tolerance in GTT ([4]; DIO ICR female mice on HFD, once a week, at 16 and 30 weeks): Improved glucose tolerance
- Rotarod test: latency to fall ([5]; DIO C57BL/6J male mice on HFD, weekly for 30 weeks): latency similar to mice in CD (vehicle) group
- Rotarod test: performance ([5]; DIO ICR female mice on HFD, weekly, at 55 weeks): significantly better than mice in HFD (vehicle) group
- Lipid droplets in liver (oil Red O) ([6]; 600 U once a week, 12 weeks): dramatic clearance of lipid droplets
- Liver triglyceride concentrations ([6]; 600 U once a week, 12 weeks): reduced to a level similar to the lean control
- Lipid in liver (H&E staining) ([6]; rhArg and/or RA): significant effect on diminishing lipid in liver
- Lipid in liver (H&E staining) ([6]; rhArg and/or metformin): slight effect of diminishing lipid in liver
- ATF4 level ([7]; 24 hrs): dramatic increase
- Level of LC3B-II ([7]; after 1 hr and 4 hrs): significantly increased
- Phosphorylation level of p70S6K1 ([7]; after 1 hr, 4 hrs, 8 hrs or 24 hrs): significantly decreased
- Level of p62 ([7]; after 4 hrs and 8 hrs): significantly decreased
- Proportion of glycosylated POMC ([7]; after 24 hrs): significantly increased
- Phosphorylation level of eIF2α ([7]; at 8 hrs or 24 hrs): significant increase
- Therapeutic duration (and half-life) [8]: much longer than BHA and BAH
